Assay results reported in article doi:10.1101/2021.09.01.458653 (bioRxiv, 2021).

B1: Ty1-CBD bifunctional fusion protein (nanobody Ty1 fused to a cellulose-binding domain) (VHH)
VHH: QVQLVETGGGLVQPGGSLRLSCAASGFTFSSVYMNWVRQAPGKGPEWVSRISPNSGNIGYTDSVKGRFTISRDNAKNTLYLQMNNLKPEDTALYYCAIGLNLSSSSVRGQGTQVTVSS
B2: Ty1 without CBD module (control protein) (VHH)
VHH: B1 VHH

Biological target: RBD-Fc (secreted recombinant receptor-binding domain of SARS-CoV-2 spike) (SARS-CoV-2, UniProt P0DTC2)
Assay: immunoassay on cellulose filter paper discs

Binder	binding result
B1	binds
B2	binds
